Test results taken from the domain aggregation screens of Martell et al. (2025).

Assay: soluble fraction after stress (log2 fold change); higher = more stays soluble; pooled small domains, quantitative proteomics
Conditions: stress: 50 degC
Outline: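 Custom libraries of small protein domains were pooled and measured in a high-throughput format, with quantitative proteomics as the read-out. Each library was stressed at 50°C. The value is the log2 fold change in the amount of each protein that stays soluble after stress, used as a measure of aggregation propensity; higher values mean more of the protein stays soluble.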

| Sequence | soluble fraction (log2) |
| --- | --- |
| HMNPETIHNDYKAFIKFAFSGLSYYSKVWNQNREMITPGLLETLWQKYRHLSIGEIETILEKIIKEG | -1.88 |
| HMIKLIKKDTNISELKMSKMPWDVMLYGKPYQVVSIKGYVHTIGGRRGENDLWMYPRDESPTYENLIEFQ | -2.61 |
| HMNSKSFIFHIEDEEGIRLDVFLADNLPDVSRSYVQKLIDEEHVKVNGQSAKSRLKTVSGMEITVDVPAPK | -0.321 |
| HMLTKSVLGNQIKVLRLEKGLSQEEFGAPVDLSRSAVSQIESGQMYPSLESIGKIVKYYSTSWDNLVG | -0.821 |
| HMDSLSGQQGRVLEEINGFLQTGKVLLNGMEWSAVSKQPEDILPVDTEVVVVRVEGAHLVVKKA | 0.0592 |
| HMRTLRENIMDYFKQQTIIQKSSVILLPMSKRQLADYFGVQRPSLFRELKKLKEEGIIEINNRTITIK | -1.27 |
| HMRQYPSGVFKEEGVKAVYIHAGTPFLVIAAQYKIPLARLFEWNNLLPSTEARISQVIYLERPG | -3.67 |
| HMYLQKGISNGKVYLSIVHGYRDPVTKKVRRKTIRSLGYLEDLEKQYADPIKHFEAVVAKMNEEEALE | -0.517 |
| HMQSRYALLAGMLRARITEGDWVPGSAIPAETVLAKEHGVALGTMRQAIALLVSQGLLERQHGRGTFVRS | -1.16 |
| HMTTQIPEEVQKRVNQFYEALDEEDYGEAKQILEELEKATAPDHPTLIQMRTRYEFDTMELR | 0.186 |
| HMEQVVFNGTGRRKSSIARVRIMSGKGNITVNGKALDEYFGEETLKVIVRQPLTVTDTLDKYDVIATVK | 0.203 |
| HMDILPRMVASEMRAVGVPPERMTREEKGTVIRNLMNAGIHQMKGAVVEIARQLHLSEPTVYRYIKREKG | -0.327 |
| HMQISNEEELEKIIENVIESNPEKVKAYQSGKSGLIGFFMGQVMKESGGQANPNLVNQILKGKL | 0.202 |
| HMEDEVSSSAAYQALLEKGVSKTLARSWVIDYGEAYVLDKVDLTTSQAARGKIKSSTAGFLKAAIEEDFHN | -0.244 |
| HMSQAVTMLKAGRLLANSKGTGAAVRDLEPGMLLYPTGQKDGTMWEVEDEMGNKGWVNSTSMQLA | 0.188 |
| HMTYIQSNLKFLRNKMNISQEELAKRLFVTHQTVSNHENGKSQPNFEMIEKYASFFNVPFEDLIHKDLSL | -0.0206 |
| HMITASNYFIEVERIGIETLPETLKKGHDLVVKSTSNGTNWANYQTSEGIKKVIDLYFQKLNEYANTV | -0.749 |
| HMRMTRQRKVILEELGKVYTHPTADEIYTMVKEKLPNISLGTVYRNLDLLAENNQVLKLETAGNIRRYD | -0.0847 |
| HMTGGLLVHVAGAVGAPGVVSLPEGARVVDAIEAAGGAREDADTDQLNLARPVVDGEQVRVPVVGEVLE | -0.0748 |
| HMPVPSPAEQTATQLANIERHTGITVDGWTRAIAEAGAAKHGEIVAWLKQQGLTHGNANALAHAVRARQSG | 0.27 |
| HMDEETVALQKAIHSLPPKQQAVFNMRYYDEMSFREIADANETTESSAKANYHFAKAKIIEQMKR | 0.101 |
| HMVITEQTVTVKYLYEDDTEAAPEHSETHKTGETFEIESPKIDGFTPDYELITGTIANDDLVYIVRYKTTP | -0.282 |
| HMNIDEIFLTKNEIYFSFEYQKKSQLDRYSKIISLDHRIDKNTAYAYANKKQFLNFINLNIDYKIIDNSF | -2.65 |
| HMSDIISEIESQVMFKLATYEITNATEKMIEALINSEINDRRTLGFPIPNEQGRIFLVRSIQNKLAV | -1.05 |
| HMPFTLDGVNEGSRNDQAARMSGYLISKNLNMDFIKFFMQSWNRQNSPPLSQREINSVVDNVKRTHDRKNK | -1.18 |
| HMSIESMVGRFGVVTKDVVANEMAGKVKVGREEFRATADIAVSSGTKVKVTHAEGITLTVVPE | 0.378 |
| HMNRIGERIKRKRELRNLNLGELAEKVGISASALSQIEKSKSFPSVITLKSIAEQLRTTVGELIGEN | 0.0607 |
| HMSETIVFGQQKAINTLSSEAGLSSAELNNYLKKRYQRPLFQLTVSEGADLIQGFQDGTLTKASITQYVSQ | -0.0548 |
| HMEDSEYDRLLAEIDEGIRKAIETLEPVELSPQNARVRRIQHQIIEKYQLHSDSVGEEPYRRVRIL | -0.593 |
| HMFGIEIPEEAGKLQDYTLTDDDLEGGNTLKEIQFPQGARVVIIRRDDKFIIPDGSVELQSGDQLLIIYGE | -0.578 |
